# Results published in the DeepSol protein solubility set.
# Assay: soluble on expression in E. coli; label from the status in PepcDB or PDB records
row,Sequence,soluble on expression in E. coli
1,MTGSQEDQPKIIIDQEQPKTLETEHQPEPSSSSPDQKKWGTHVMGAPAAPVAHPDNQQAAAWVAGDNQQTQYQPYVIYSPVEHPTTNNPLEPVIGMFHTWSRKAETVARNLWHNLKTGPSMSETAWGKVNLTAKAITKGGFESLFRQIFGTEPNETLKKTFACYLSTTTGPVAGTVYLSNARVAFCSDRPLYFTAPSGQESWSYYRVVVPLANVATVNPVVVKETPPEKYIQLTTVDGHDFWFMGFVNYEKATHHLLTSVSDFQTAHGSVSG,soluble
2,MGSDKIHHHHHHMDRSERLIQLISEEGIDAFLIMNIENSARASSVYFSGFTGSFSIILISENTRLLITDSRYTVQAKQETDFEVREVKGGDFIDVLKKTVNDLKIKTIALEEERVSLSLFRRISSAFGDRKFIGIDDEVKQMRMVKDEGEIEKIKQAIEISERAFLETVQQIRAGMTEKEIAALLEYTMRKEGAEGVAFDTIVASGCRSALPHGKASDKVVERGDVIVIDFGATYENYCADITRVVSIGEPSDEVKEVHSIVLEAQERALKIAKAGVTGKLLDSVAREFIREKGYGEFFGHSLGHGIGLEVHEGPAISFRNDSPLPENVVFTVEPGIYLEGKFGIRIEEDVVLKEQGCEILTTLPRSIFVV,not soluble
3,MGYHGGTMRVLGRRIYWRWYGEVLLEGGVTLRMTGDVAKWLRPGDRVRLRTEFKKPVLGFDEYALEAVFPLWPPFAKTLEHVRESPFGGKAYRYRLKVREATYEGDYEAIAELEQFHYASEKEVVALWVCTQCQKTLPANARPLCDCGGEARLKEIRGSTPASRFLVLELAERLPFEPRILGYLRLDPPIPRMHRRTPEGVERDIRERIFPRDWFHPTYEGGADWQRALDRVNTAAARIARVVVHPDYRSEGFGALLVRVALEWAKERGAPEARREKHLVYTIAQMARYHPFFEKVGFRYLFDTASGRPVLFYPLTEEAEAHLERFLREDPYAKAHGGRLYKPRFGRVPGLPGPIRLRGVHKAYRSHLDLEGLSREVQEALLAFGVKARVVERAVLRGASLEIPPGSLVVLAGASGAGKTTLLRLLLGEAPDAGEVAVPPGRRVAYIPGEREVDLGEDPILEAVYRRLKDVGAAIEVLNRVGLSDAVLYRARPHELSTGQRERFRLALLLAERPDLLLIDEFAAHLDVPTARRVALGLGKLCREAGVTLVAATHRPEVVAALDPDLLVYVGYGGLTTVPRRGPRT,soluble
4,MSLGPVENHSLPRTAAFFDLDKTVIAKSSTLTFSKSFYQGGLINRRAVLRTAYAQFVFLAGGADHDQMERMREYLSALCRGWNVRQVKEIVAETLHDLIDPIIYDEAASLIEEHHTAGRDVVIVSTSGAEVVEPIGELLGADRVVATRMIVGDDGCFTGEVEYYAYGPTKAEAIKELAASEGYDLARCYAYSDSATDLPMLESVGHPHAVNPDRALRREAIARQWPILDFHRPVRLKQRLPALSVPPREGHHHHHH,soluble
5,MIKRPHVMQDSIQDCGVACIEMICKFYNINIDRRYIQEETGYGMIGISLKAMEKFFSKVDANPEIVNISKINRLNKENREMINNSLPAIVFLEEEEIINHFVVIWHIGKKRILVSDPTHTKKEWINNKHFEKRAISYLFVEKPKNI,not soluble
6,SCSTSGCDLEEIPLDDDDLNTIEFKILAYYTRHHVFKSTPALFSPKLLRTRSLSQRGLGNCSANESWTEVSWPCRNSQSSEKAINLGKKKSSWKAFFGVVEKEDSQSTPAKVSAQGQRTLEYQDSHSQQWSRCLSNVEQCLEHEAVDPKVISIANRVAEIVYSWPPPQATQAGGFKSKEIFVTEGLSFQLQGHVPVASSSKKDEEEQILAKIVELLKYSGDQLERKLKKDKALMGHFQDGLSYSVFKTITDQVLMGVDPRGESEVKAQGFKAALVIDVTAKLTAIDNHPMNRVLGFGTKYLKENFSPWIQQHGGWEKILGISHEEVD,soluble
7,MSLAESRLTKLGQELAADKEFSSLERFADLVEKLQASLEIDATTLAAILLKRQQGKRPLFYVGADPMIEAMEREKSRRRERRDDRRDGDRPARREFGGRDQENHDWDTYQLQVGRDQGVQVKDIVGALANELGLTKGSIGAIKLAQGHTFVQLPKAMSNDVSSKLRKLRIRQKEVGAVVCDFDDFRESRGGARREGGPRREGGRRPEGNREGGFRGGREGGREGGRGRGGEGRPFREGERRFERNRSGESSGSYRGERGHSRRREEAEGHHHHHH,not soluble
8,APSYPEYTREEVGRHRSPEERVWVTHGTDVFDVTDFVELHPGGPDKILLAAGGALEPFWALYAVHGEPHVLELLQQYKVGELSPDEAPAAPDAQDPFAGDPPRHPGLRVNSQKPFNAEPPAELLAERFLTPNELFFTRNHLPVPAVEPSSYRLRVDGPGGGTLSLSLAELRSRFPKHEVTATLQCAGNRRSEMSRVRPVKGLPWDIGAISTARWGGARLRDVLLHAGFPEELQGEWHVCFEGLDADPGGAPYGASIPYGRALSPAADVLLAYEMNGTELPRDHGFPVRVVVPGVVGARSVKWLRRVAVSPDESPSHWQQNDFKGFSPCVDWDTVDYRTAPAIQELPVQSAVTQPRPGAAVPPGELTVKGYAWSGGGREVVRVDVSLDGGRTWKVARLMGDKAPPGRAWAWALWELTVPVEAGTELEIVCKAVDSSYNVQPDSVAPIWNLRGVLSTAWHRVRVSVQD,soluble
9,DIGCYTLGALPPYEAINSCVDMGASITMAKGAADAGLFPAVSVIGDSTFTHSGITGLLDAINENSNITVIISDNESISMTGGQHSSAYGKVEAICRGIGVDPDHIRELLPVPKNHDELCSIIREEINYEGVSVIIPRRVCIQKHARDAKAAKRAKA,not soluble
10,MFQQQKDWETRENAFAAFTMGPLTDFWRQRDEAEFTGVDDIPVRFVRFRAQHHDRVVVICPGRIESYVKYAELAYDLFHLGFDVLIIDHRGQGRSGRLLADPHLGHVNRFNDYVDDLAAFWQQEVQPGPWRKRYILAHSMGGAISTLFLQRHPGVCDAIALTAPMFGIVIRMPSFMARQILNWAEAHPRFRDGYAIGTGRWRALPFAINVLTHSRQRYRRNLRFYADDPTIRVGGPTYHWVRESILAGEQVLAGAGDDATPTLLLQAEEERVVDNRIHDRFCELRTAAGHPVEGGRPLVIKGAYHEILFEKDAMRSVALHAIVDFFNRHNSPSGNRSTEV,soluble
11,MAVCGLGSRLGLGSRLGLRGCFGAARLLYPRFQSRGPQGVEDGDRPQPSSKTPRIPKIYTKTGDKGFSSTFTGERRPKDDQVFEAVGTTDELSSAIGFALELVTEKGHTFAEELQKIQCTLQDVGSALATPCSSAREAHLKYTTFKAGPILELEQWIDKYTSQLPPLTAFILPSGGKISSALHFCRAVCRRAERRVVPLVQMGETDANVAKFLNRLSDYLFTLARYAAMKEGNQEKIYMKNDPSAESEGL,not soluble
12,GMKSLHRPDLYSWSTFNPARNIDFNGFAWIRPEGNILIDPVALSNHDWKHLESLGGVVWIVLTNSDHVRSAKEIADQTYTKIAGPVAEKENFPIYCDRWLSDGDELVPGLKVMELQGSKTPGELALLLEETTLITGDLVRAYRAGGLEILPDEKLMNKQKVVASVRRLAALEKVEAVLVGDGWSVFRDGRDRLKELVATLA,soluble
13,GPGSMNAASYSGSGLASAATVEDVVKPDTIAAILAQLKEQDVRIGRLEAAVERSAINRTHFDILTMAGVTADFVCDEISFHNRSTVEFNALPCKVTLDYPCGELSILLDDADSDLSFLGVTLRVDCITDCHLLVDPDNCSVVVDTNTSKITDVTQLVLVGPTQEATRELYEALRDVVAQRRPPCSPAPDTTTTTTRNSSRALINRSEGEYESTLGGDGKLFSIEATPNNAGTTRNNVDASSSPRLQLSNTLPCDRTAHTPVDPRRPNTLPSFSANRKGTQQE,soluble
14,MIELYSNAKLPTEFGLFRIYTFVNDENKDHAVIVRGDPRGKENVPLRIHSECLTGDVLGSLRCDCRDQLIQSLRYLGRQEYGMLIYLRQEGRGIGLLNKIKAYSLQDMGADTVEANLKLGLPVDSRNYSFAAEVLRYFEIKSIYIMTNNPEKIKSLIESGINVKGRIPIFSDPTPYDKFYLETKKTKLGHEIENILEHHHHHH,soluble
15,MILDTSVIIRIFRDRNFFEVLKERIDDDVKITSVTAYELQRGAVYIMLKHGRDYEFKLIRDFLEEVEILSFTPKDSEISAMIWAKLREKGYELNDADIMISAVSIRENEKLVTLDRDFEYISRVSELDVDILEEEL,not soluble
16,MYEGTLSMAVQSLGQAVNYCKRFGPRLVATKMLYKLLPQAGFSVCRQIEEYLKHYYLPDVAYHKTEFCGKIQADAPIWVMWWQGEERMPDVVRLAVASMRRFAGRRPVMLITKDNYHDYAKRSVDFYRYVEHGAISLTHFSDYVRFDLLHKYGGFWLDATLLMTAPIPDFVNDLRLFSIKHGTIRPGEQWSPMWSRNWTAYCWGGCAGDPFFDFMLRFFERYHEREGSVMIDYFLIDRIISVAYQEFVDVRNTIDAIPVNNVDVLTSPIVNTASINHRSDDNGTFLHKLSWKEPPQPDCGNGQRSWFGQLLDQYGIRLEHHHHHH,not soluble
17,IPADELFSRDALRKVEDIRNKTKNKSYIRKALKKPWNILVGSLPVGFDFPARIIAEIVDAPKLSLEGLVKKANYYLSEGADIVDIGMVAGETNVKFLDVIPEFREVLGREVPISLDSLNAKELEAGLDFVDMILSVDWSNVEDLVTDKPVVLIPTDMKNGYFPLNPRDRVESLEKLKEKALSLGYKRIIADLILEHYPGFSRSIVAFSLYRDRNREDIMLAGVGNVTEMTDADSPGINALLAGIASELRISMLLTTEVSRKCTGSIRELRRAIDMTLLGGVKDVGLNLLLLKEKKDKGLRFEISKNIVEAKRKEVKLEDTYFRIFVDNGKIYVNAYKGMNLVITIVGNEPNEIMDTILDYFSLSPRHAFYLGRELEKAYTALKLRRSYAQEEELFRDFYTK,not soluble
18,MLRVLIVDDEMLARDELAYLLKRTNDEMEINEAENIESAFDQMMDQKPDLLFLDVDLSGENGFDIAKRLKKMKHPPAIVFATAYDQYALKAFEVDALDYLTKPFDEERIQQTLKKYKKVNRDIVETEQNSHAGQHKLALSVGESIVIVDTKDIIYAGTEDGHVNVKTFDHSYTVSDTLVVIEKKLPDSDFIRVHRSFVVNTEYIKEIQPWFNSTYNLIMKDGSKIPVSRTYAKELKKLLHI,not soluble
19,MSYRYMRMILMFDMPTDTAEERKAYRKFRKFLLSEGFIMHQFSIYSKLLLNNTANNAMIGRLREHNPNKGNITLLTVTEKQFARMIYLHGERNNCIANSDERLVFLGEAFDES,not soluble
20,MGSDKIHHHHHHMRVLHFYKTYLSETVGGIEQVIFQLCESSGSWGIDNHVLTLSSDPHPPVVPFGGHVVHRARLDLQLASTGFSLSVFKQFRELAAEADVVNYHFPWPFMDLVHFLTGMNKPSVVTYHSDIIRQRVLLKLYRPLMSRFLHSVDRIVAASPNYFSTSDVLRQYREKTRVITYGLDKDGYPKPATQRLEHWREKLGPRFFLFVGVMRYYKGLHILLDALQGTDYPVVIVGAGPLQAELYAQAAALGLRNVHFLGRVDDEDKVALLQLSYAMVFPSHLRSEAFGISLLEGAMYGKPMISSEIGTGTSYINIHGETGLVVPPSQPAAFRQAMRWLWEHPQQAEEMGRNAEARYRQLFTAEEMGRRWSELYRELLEEKASSRYVKAAR,not soluble
21,MKNKLPPFIEIYRALIATPSISATEEALDQSNADLITLLADWFKDLGFNVEVQPVPGTRNKFNMLASTGQGAGGLLLAGHTDTVPFDDGRWTRDPFTLTEHDGKLYGLGTADMKGFFAFILDALRDVDVTKLKKPLYILATADEETSMAGARYFAETTALRPDCAIIGEPTSLQPVRAHKGHISNAIRIQGQSGHSSDPARGVNAIELMHDAIGHILQLRDNLKERYHYEAFTVPYPTLNLGHIHGGDASNRICAWCELHMDIRPLPGMTLNELNGLLNDALAPVSERWPGRLTVDELHPPIPGYECPPNHQLVEVVEKLLGAKTEVVNYCTEAPFIQTLCPTLVLGPGSINQAHQPDEYLETRFIKPTRELITQVIHHFCWH,soluble
